Test results as given in article PMC10586629.

The substances below were run against EDE1-C10 IgG1 (assay: shotgun alanine-scanning mutagenesis library binding screen). Conditions: read off a plot.
“wild-type DENV2 16681 prM/E expressed in HEK-293T cells M6A” showed a percent of parent of 82 % WT. For “wild-type DENV2 16681 prM/E expressed in HEK-293T cells V308A”, the percent of parent was 53 % WT. In the case of “wild-type DENV2 16681 prM/E expressed in HEK-293T cells T155A”, the percent of parent was 81 % WT. For “wild-type DENV2 16681 prM/E expressed in HEK-293T cells K310A”, the percent of parent was -4 % WT. For “wild-type DENV2 16681 prM/E expressed in HEK-293T cells I113A”, the percent of parent was 73 % WT. “wild-type DENV2 16681 prM/E expressed in HEK-293T cells L82A” showed a percent of parent of 57 % WT. With “wild-type DENV2 16681 prM/E expressed in HEK-293T cells V309A” the percent of parent was 57 % WT. “wild-type DENV2 16681 prM/E expressed in HEK-293T cells V97A” was tested, and the percent of parent was 74 % WT. With “wild-type DENV2 16681 prM/E expressed in HEK-293T cells G78A” the percent of parent was 44 % WT. “wild-type DENV2 16681 prM/E expressed in HEK-293T cells N153A” gave a percent of parent of 61 % WT. “wild-type DENV2 16681 prM/E expressed in HEK-293T cells Q77A” showed a percent of parent of 72 % WT.
